Patent US20260232732A1 (FUNDACI INSTITUT DE RECERCA CONTRA LA LEUC MIA JOSEP …, published 2026)
Where no end group is shown, it is not given here. The star is where a group is joined. Biotin = O=C1N[C@H]2[C@H](CS[C@H]2CCCCC(=O)*)N1

Tests used:
[1] = target: T1, naked peptide 1b MEDYVNFNFTDFYCEKNNVRQFAS (human); assay: ELISA naked 24-mer; repII
T1 construct: also called region amino acids 25 to 48
T1 peptide: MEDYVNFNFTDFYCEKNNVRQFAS

[2] = target: T2, naked peptide 1a MTPTDFTSPIPNMADDYGSESTSS (human); assay: ELISA naked 24-mer; repII
T2 construct: also called region 1-24
T2 peptide: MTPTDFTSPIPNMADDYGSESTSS

[3] = target: T3, biotin-peptide SMEDYVNFNF (human); assay: ELISA biotin-peptide; scFv 10 ug/mL; repII
T3 peptide: Biotin-SMEDYVNFNF
Method: (§1) The peptides were synthesized naked or with a N-terminal Biotin modification with a purity of >98%. All four scFvs were verified by ELISA that can be detected with anti-His antibodies. ELISA was performed for scFv-peptide binding validation. Briefly, naked peptides were coated (50 μg/mL) in 0.58M carbonate-bicarbonate buffer pH9.5, 100 μL/well, 4° C. O/N. Then after blocking (3% BSA-PBS, 300 μL/well 37° C. 1.5 h) and washing (PBS+Tween-20 0.05% v/v (0.05% PBST), wells were incubated with each purified scFv antibody at concentration of 1 μg/mL in PBS at 37° C. 1 h. After washing (0.05% PBST), wells were incubated with secondary antibodies (goat anti-His IgG-HRP) in PBS, 37° C., 30 min. After washing, and incubation with TMB substrate, reactions were stopped with 2M HCl and reading was quantified at OD450.
(§2) ELISA with biotin-conjugated peptides (5 μg/mL) was performed very similar to described above with minor modifications.

[4] = target: T4, biotin-peptide SESTSSMEDY (human); assay: ELISA biotin-peptide; scFv 10 ug/mL; repII
T4 peptide: Biotin-SESTSSMEDY
Method: as §1, §2

[5] = target: T5, biotin-peptide MEDYVNFNFT (human); assay: ELISA biotin-peptide; scFv 10 ug/mL; repII
T5 peptide: Biotin-MEDYVNFNFT
Method: as §1, §2

[6] = target: T6, biotin-peptide MTPTDFTSPI (human, also: prints MTPTDFTSP, without I10); assay: ELISA biotin-peptide; scFv 10 ug/mL; repII
T6 peptide: Biotin-MTPTDFTSPI
Method: as §1, §2

[7] = target: T7, biotin-peptide YVNFNFTDFY (human); assay: ELISA biotin-peptide; scFv 10 ug/mL; repII
T7 peptide: Biotin-YVNFNFTDFY
Method: as §1, §2

[8] = target: T8, biotin-peptide TDFYCEKNNV (human); assay: ELISA biotin-peptide; scFv 10 ug/mL; repII
T8 peptide: Biotin-TDFYCEKNNV
Method: as §1, §2

[9] = target: T9, biotin-peptide FNFTDFYCEK (human); assay: ELISA biotin-peptide; scFv 10 ug/mL; repII
T9 peptide: Biotin-FNFTDFYCEK
Method: as §1, §2

[10] = target: T10, biotin-peptide KNNVRQFAS (human); assay: ELISA biotin-peptide; scFv 10 ug/mL; repII
T10 peptide: Biotin-KNNVRQFAS
Method: as §1, §2

[11] = target: T11, biotin-peptide MADDYGSEST (human); assay: ELISA biotin-peptide; scFv 10 ug/mL; repII
T11 peptide: Biotin-MADDYGSEST
Method: as §1, §2

[12] = target: T12, biotin-peptide DYGSESTSSM (human); assay: ELISA biotin-peptide; scFv 10 ug/mL; repII
T12 peptide: Biotin-DYGSESTSSM
Method: as §1, §2

[13] = target: T3, biotin-peptide SMEDYVNFNF; assay: ELISA biotin-peptide; scFv 10 ug/mL; repI
Method: as §1
(§3) Then a library of overlapping peptides were designed and constructed separately to produce 16 different peptides, covering full antigen sequence of total 48 aa. Peptide size was 10aa, with 7aa overlapping and ELISA screening of scFv against each peptide was performed in duplicate. Screening was performed using naked peptides in a standard plate or biotinylated peptides using avidin-plates. The list of overlapping peptides was as follows:
as §2

[14] = target: T4, biotin-peptide SESTSSMEDY; assay: ELISA biotin-peptide; scFv 10 ug/mL; repI
Method: as §1, §3, §2

[15] = target: T5, biotin-peptide MEDYVNFNFT; assay: ELISA biotin-peptide; scFv 10 ug/mL; repI
Method: as §1, §3, §2

[16] = target: T13, biotin-peptide YCEKNNVRQF (human); assay: ELISA biotin-peptide; scFv 10 ug/mL; repI
T13 peptide: Biotin-YCEKNNVRQF
Method: as §1, §3, §2

[17] = target: T6, biotin-peptide MTPTDFTSPI; assay: ELISA biotin-peptide; scFv 10 ug/mL; repI
Method: as §1, §3, §2

[18] = target: T14, biotin-peptide IPNMADDYGS (human); assay: ELISA biotin-peptide; scFv 10 ug/mL; repI
T14 peptide: Biotin-IPNMADDYGS
Method: as §1, §3, §2

[19] = target: T7, biotin-peptide YVNFNFTDFY; assay: ELISA biotin-peptide; scFv 10 ug/mL; repI
Method: as §1, §3, §2

[20] = target: T15, biotin-peptide TSPIPNMADD (human); assay: ELISA biotin-peptide; scFv 10 ug/mL; repI
T15 peptide: Biotin-TSPIPNMADD
Method: as §1, §3, §2

[21] = target: T8, biotin-peptide TDFYCEKNNV; assay: ELISA biotin-peptide; scFv 10 ug/mL; repI
Method: as §1, §3, §2

[22] = target: T9, biotin-peptide FNFTDFYCEK; assay: ELISA biotin-peptide; scFv 10 ug/mL; repI
Method: as §1, §3, §2

[23] = target: T16, biotin-peptide SSMEDYVNFN (human); assay: ELISA biotin-peptide; scFv 10 ug/mL; repI
T16 peptide: Biotin-SSMEDYVNFN
Method: as §1, §3, §2

[24] = target: T10, biotin-peptide KNNVRQFAS; assay: ELISA biotin-peptide; scFv 10 ug/mL; repI
Method: as §1, §3, §2

[25] = target: T17, biotin-peptide TDFTSPIPNM (human); assay: ELISA biotin-peptide; scFv 10 ug/mL; repI
T17 peptide: Biotin-TDFTSPIPNM
Method: as §1, §3, §2

[26] = target: T11, biotin-peptide MADDYGSEST; assay: ELISA biotin-peptide; scFv 10 ug/mL; repI
Method: as §1, §3, §2

[27] = target: T12, biotin-peptide DYGSESTSSM; assay: ELISA biotin-peptide; scFv 10 ug/mL; repI
Method: as §1, §3, §2

[28] = target: T18, biotin-peptide TSSMEDYVNF (human); assay: ELISA biotin-peptide; scFv 10 ug/mL; repI
T18 peptide: Biotin-TSSMEDYVNF
Method: as §1, §3, §2

B1: Comparative antibody 1 (Comp-1) scFv, SEQ ID NO: 10 from WO2023/037125 A1, His-tagged (scFv)
scFv: QVQLKESGPGLVQPSQTLSLTCTVSGFSVASYDMHWVRLPPGKGLEWMGIIWANGNTHYNSGLKSRLSISRDTSKSQVFLKMNSLQTEDTAIYFCTRGGFAYWGQGTLVTVSSGGGGSGGGGSGGGGSGGGGSDVVMTQTPVSLSVSLGGQVSISCRSSQSLVHNNGNTYLSWYLQKPGQSPQLLIYKVSNRFSGVSDRFSGSGSGTDFTLKISRVEPDDLGVYYCGQGTQYPTFGGGTKLELKHHHHHH
- OD450 [1]: 0.06 OD
- OD450 [2]: 0.1 OD
- OD450 [3]: 0.1 OD
- OD450 [4]: 0.1 OD
- OD450 [5]: 0.14 OD
- OD450 [6]: 0.07 OD
- OD450 [7]: 0.09 OD
- OD450 [8]: 0.05 OD
- OD450 [9]: 0.05 OD
- OD450 [10]: 0.06 OD
- OD450 [11]: 0.07 OD
- OD450 [12]: 0.11 OD
- OD450 [13]: 0.15 OD
- OD450 [14]: 0.13 OD
- OD450 [15]: 0.16 OD
- OD450 [16]: 0.06 OD
- OD450 [17]: 0.08 OD
- OD450 [18]: 0.16 OD
- OD450 [19]: 0.1 OD
- OD450 [20]: 0.13 OD
- OD450 [21]: 0.08 OD
- OD450 [22]: 0.06 OD
- OD450 [23]: 0.1 OD
- OD450 [24]: 0.05 OD
- OD450 [25]: 0.06 OD
- OD450 [26]: 0.08 OD
- OD450 [27]: 0.1 OD
- OD450 [28]: 0.1 OD

B2: Comparative antibody 2 (Comp-2) scFv, 243LO326 (VH SEQ ID NO: 51 and VL SEQ ID NO: 52 of WO 2022/195028 A2), His-tagged (scFv)
scFv: QVQLVQSGAEVKKPGASVKVSCKASGYTFTSYWMHWVRQAPGQGLEWIGVIYPGNSDTRYNQKFKGRVTITRDTSASTAYMELSSLRSEDTAVYYCTRDYYSNYVYYYAMDYWGQGTTVTVSSGGGGSGGGGSGGGGSGGGGSDIVMTQTPLSLPVTPGEPASISCRSSQSLVHPNRNTYLHWYLQKPGQSPQLLIYKVSNRFSGVPDRFSGSGSGTDFTLKISRVEAEDVGVYYCSQSTHVPWTFGQGTKLEIKHHHHHH
- OD450 [1]: 2.01 OD
- OD450 [2]: 0.08 OD
- OD450 [3]: 0.05 OD
- OD450 [4]: 0.05 OD
- OD450 [5]: 0.08 OD
- OD450 [6]: 0.1 OD
- OD450 [7]: 2.06 OD
- OD450 [8]: 0.05 OD
- OD450 [9]: 1.35 OD
- OD450 [10]: 0.07 OD
- OD450 [11]: 0.09 OD
- OD450 [12]: 0.09 OD
- OD450 [13]: 0.09 OD
- OD450 [14]: 0.06 OD
- OD450 [15]: 0.1 OD
- OD450 [16]: 0.09 OD
- OD450 [17]: 0.08 OD
- OD450 [18]: 0.1 OD
- OD450 [19]: 1.93 OD
- OD450 [20]: 0.04 OD
- OD450 [21]: 0.06 OD
- OD450 [22]: 1.45 OD
- OD450 [23]: 0.12 OD
- OD450 [24]: 0.08 OD
- OD450 [25]: 0.1 OD
- OD450 [26]: 0.08 OD
- OD450 [27]: 0.09 OD
- OD450 [28]: 0.08 OD

B3: Comparative antibody 3 (Comp-3) scFv, SR_92R (Somovilla-Crespo et al. 2018), His-tagged (scFv)
scFv: EVKLEESGGGLVQPGGSMKLSCVASGFTFNKFWMNWVRQSPEKGLEWVAEIRLKSNNYATHYAESVKGRFTISRDDSKSSVYLQMNNLRAEDTGIYYCASDGWFAYWGQGTLVTVSAGGGGSGGGGSGGGGSGGGGSDVVMTQTPLSLPVSLGDQASISCRSSQSLVHSNGNTYLNWCLQRPGQSPKSLIYKVSNRFSGVPDRFSGSGSGTDFTLKISRVEAEDLGVYFCSQSTHFPRTFGGGTKLEIKRHHHHHH
- OD450 [1]: 0.09 OD
- OD450 [2]: 1.35 OD
- OD450 [3]: 0.12 OD
- OD450 [4]: 0.12 OD
- OD450 [5]: 0.11 OD
- OD450 [6]: 0.13 OD
- OD450 [7]: 0.13 OD
- OD450 [8]: 0.09 OD
- OD450 [9]: 0.07 OD
- OD450 [10]: 0.08 OD
- OD450 [11]: 0.13 OD
- OD450 [12]: 0.1 OD
- OD450 [13]: 0.1 OD
- OD450 [14]: 0.15 OD
- OD450 [15]: 0.1 OD
- OD450 [16]: 0.11 OD
- OD450 [17]: 0.1 OD
- OD450 [18]: 1.59 OD
- OD450 [19]: 0.1 OD
- OD450 [20]: 1.6 OD
- OD450 [21]: 0.08 OD
- OD450 [22]: 0.09 OD
- OD450 [23]: 0.15 OD
- OD450 [24]: 0.09 OD
- OD450 [25]: 0.11 OD
- OD450 [26]: 0.09 OD
- OD450 [27]: 0.12 OD
- OD450 [28]: 0.1 OD

B4: CCR9_HUM2 scFv (humanized anti-CCR9 scFv, SEQ ID NO: 17 with C-terminal 6xHis tag) (scFv)
scFv: QVQLVQSGAEVKKPGASVKVSCTASGYSFTDYIIYWVKQAHGQSLEWMGYIDPNNYNTRYSQKFQGKVTITVDKSSTSAYMELNSLTSDDTAVYYCARDVYWGQGTTVTVSSGGGGSGGGGSGGGGSGGGGSDVVMTQTPLSLSVTPGQPASISCRSSQSLVHSNGKTYLQWYLQKPGQSPKLLIYKVSNRFSGVPDRFSGSGSGTDFTLKISRVEAEDVGVYFCAQSTHVWTFGGGTKVEIKRAHHHHHH
- OD450 [1]: 2.24 OD
- OD450 [2]: 0.08 OD
- OD450 [3]: 2.38 OD
- OD450 [4]: 0.09 OD
- OD450 [5]: 2.32 OD
- OD450 [6]: 0.09 OD
- OD450 [7]: 0.21 OD
- OD450 [8]: 0.06 OD
- OD450 [9]: 0.06 OD
- OD450 [10]: 0.09 OD
- OD450 [11]: 0.16 OD
- OD450 [12]: 0.07 OD
- OD450 [13]: 2.48 OD
- OD450 [14]: 0.08 OD
- OD450 [15]: 2.56 OD
- OD450 [16]: 0.07 OD
- OD450 [17]: 0.09 OD
- OD450 [18]: 0.14 OD
- OD450 [19]: 0.17 OD
- OD450 [20]: 0.09 OD
- OD450 [21]: 0.08 OD
- OD450 [22]: 0.05 OD
- OD450 [23]: 2.45 OD
- OD450 [24]: 0.07 OD
- OD450 [25]: 0.12 OD
- OD450 [26]: 0.09 OD
- OD450 [27]: 0.09 OD
- OD450 [28]: 2.05 OD
